In US20140378657A1:

Legend:
[1] = target: biotinylated maltose binding protein (MBP-AviTag fusion, Avidity, LLC) [MBP: P0AEX9]; assay: SPR, biotinylated MBP row of Table 2; footnote: value determined by the surface plasmon resonance method described in Qureshi and Wong (2002)
[2] = target: biotinylated maltose binding protein (MBP-AviTag fusion, Avidity, LLC) [MBP: P0AEX9]; assay: SPR (BIAcoreX), biotinylated MBP-AviTag as immobilised ligand
[3] = target: biotinylated maltose binding protein (MBP-AviTag fusion, Avidity, LLC) [MBP: P0AEX9]; assay: affinity column, elution with 5 mM d-biotin

kon [1] [M⁻¹ s⁻¹]	Kd [2] [nM]	koff [2] [s⁻¹]	kon [2] [M⁻¹ s⁻¹]	recovery from affinity column [3] [%]	Substance
5.13e+06					wild-type streptavidin (from UniProt P22629 25-183)
	11.5	0.00265	230000	90	streptavidin mutein SBPM18 (S27A, G48T) (designed binder)
